Patent publication US20240309084A1 (Novartis, published 2024)
Like-named read-outs stand apart in the source and are kept apart here.

B2: recombinant extracellular domain of human ASGPR1 with N-terminal biotinylated Avitag (receptor, UniProt P07306 62-291, looked up)
chain: QNSQLQEELRGLRETFSNFTASTEAQVKGLSTQGGNVGRKMKSLESQLEKQQKDLSEDHSSLLLHVKQFVSDLRSLSCQMAALQGNGSERTCCPVNWVEHERSCYWFSRSGKAWADADNYCRLEDAHLVVVTSWEEQKFVQHHIGPVNTWMGLHDQNGPWKWVDGTDYETGFKNWRPEQPDDWYGHGLGGGEDCAHFTDDGRWNDDVCQRPYRWVCETELDKASQEPPLL
modifications: biotin on the N-terminal Avitag
notes: extracellular domain; also called hASBPR1; AGSPR1; not shown: N-terminal Avitag
B3: GalNAc-labeled LDLR conjugate (LDLR193 (193-720)(N515Q)(N657Q)_SrtA_CHis) (receptor)
chain: not shown
modifications: C-terminal sortase A ligation to GGG-triGalNAc at the LPETGG motif
notes: also called GalNAc trimer-anti-LDLR protein conjugate

Experiments:
[1] = target: B2; assay: SPR, independently immobilized ASGPR
Procedure: (§1) ASGPR SPR experiments were performed on either Biacore T200 or Biacore 8K. The assay was optimized for Biacore SA chip in running buffer consisting of 20 mM HEPES, 300 mM NaCl, 2 mM CaCl₂), 0.01% tween-20, 2% DMSO, pH 7.4. Recombinant extracellular domain of human ASGPR1 with N-terminal biotinylated Avitag was diluted to 20 μg/mL in running buffer, and immobilized onto SA chip after it was preconditioned with at least four 60-second injections at 30 μL/min of 1 M NaCl/40 mM NaOH solution. Protein immobilization level varied from 500 RU to 3500 RU dependent on analytes' molecular weight, for targeted Rmax of 30 RUs. Direct binding of analytes to ASGR1 was observed when a dose response titration of analytes in 2% DMSO was flown over the immobilized protein. Data analysis was done on either Biacore T200 Evaluation Software or Biacore Insight Evaluation Software.

[2] = target: T1, purified recombinant full length human PCSK9 with C-terminal biotinylated Avitag (human, UniProt Q8NBP7 31-692, biotin on the C-terminal Avi-tag); assay: SPR, independently immobilized PCSK9
T1 construct: Signal peptide removal and autocatalytic prodomain cleavage are not described for the construct; also called hPCSK9; full length hPCSK9; not shown: Avi-tag

[3] = target: B2; assay: SPR, stepwise (single-cycle) injections of the bispecific Ab over immobilised hASGPR1
Procedure: as §1

His-ASGPR1(62-291) = target: T2, His-ASGPR1(62-291) (UniProt P07306 62-291); assay: SPR, ternary format; panel title: hASGPR1 Binding Immobilized Bispecific Ab Bound to hPCSK9
T2 construct: range 62-291; also called ASGPR1 (analyte of the sandwich SPR assay); not shown: His tag
T2 sequence (looked up): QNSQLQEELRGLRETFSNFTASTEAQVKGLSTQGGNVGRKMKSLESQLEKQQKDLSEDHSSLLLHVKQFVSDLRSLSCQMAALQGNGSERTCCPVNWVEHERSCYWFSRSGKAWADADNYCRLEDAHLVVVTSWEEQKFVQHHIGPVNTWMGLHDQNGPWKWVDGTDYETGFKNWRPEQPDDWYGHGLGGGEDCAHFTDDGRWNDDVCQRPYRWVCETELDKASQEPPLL

[4] = target: B3; assay: SPR, 1:1 fit, stepwise injections over avi_deglycosylated_ASGPR1
[5] = target: T3, triGalNAc-PCSK9 conjugate 4 (GalNAc-labeled PCSK9) (human, UniProt Q8NBP7 31-692, triGalNAc with a short PEG linker on a single solvent exposed lysine (position not given)); assay: SPR, 1:1 binding fit, stepwise injections over ASGPR1; table under FIG. 16B
T3 construct: It is not clear whether the PCSK9 was biotinylated before conjugation; also called triGalNAc-hPCSK9 4; GalNAc trimer-PCSK9 protein conjugate; not shown: Avi-tag
Procedure: as §1

[6] = target: T3, triGalNAc-PCSK9 conjugate 4 …; assay: as above; remark: listed apart in the source
Procedure: as §1

[7] = target: T1, purified recombinant full length human …; assay: SPR, 1:1 binding fit, stepwise injections over avi-PCSK9

B1: anti-ASGPR-PCSK9 bispecific antibody (ASGPR_4F3_scFv-PCSK9_Fab_DANAPA_hIgG1_KiH) (bispecific antibody)
light: not shown
chain: not shown
heavy: QVQLVQSGAEVKKPGASVKVSCKASGYTFTSYYMHWVRQAPGQGLEWMGEISPFGGRTNYNEKFKSRVTMTRDTSTSTVYMELSSLRSEDTAVYYCARERPLYASDLWGQGTTVTVSSASTKGPSVFPLAPSSKSTSGGTAALGCLVKDYFPEPVTVSWNSGALTSGVHTFPAVLQSSGLYSLSSVVTVPSSSLGTQTYICNVNHKPSNTKVDKRVEPKSCDKTHTCPPCPAPELLGGPSVFLFPPKPKDTLMISRTPEVTCVVVAVSHEDPEVKFNWYVDGVEVHNAKTKPREEQYASTYRVVSVLTVLHQDWLNGKEYKCKVSNKALAAPIEKTISKAKGQPREPQVCTLPPSREEMTKNQVSLSCAVKGFYPSDIAVEWESNGQPENNYKTTPPVLDSDGSFFLVSKLTVDKSRWQQGNVFSCSVMHEALHNHYTQKSLSLSPGK
notes: also called ASGPR-PCSK9 bispecific antibody 5; bispecific ASGPR-PCSK9 Ab 5
Binder B1 has a Kd [1] of 3 nM, a Kd [2] of 0.2 nM and a Kd [3] of 2.73 nM. The koff [3] was 0.000527 s⁻¹, the kon [3] was 193000 M⁻¹ s⁻¹ and the Kd (His-ASGPR1(62-291)) was 3.27 nM. It also gave a koff (His-ASGPR1(62-291)) of 5.93e-05 s⁻¹ and a kon (His-ASGPR1(62-291)) of 18200 M⁻¹ s⁻¹.

B2 was tested, and the Kd [4] was 1.34 nM, the Kd [5] was 0.299 nM and the Kd [6] was 0.175 nM.

For B3, the Kd [7] was 156 nM.
